Results taken from patent publication US20110104145A1 (published 2011).
Where no end group is shown, it is not given here.

Key:
[1] = target: CD89 (Fc receptor for IgA) on polymorphonuclear cells (human, UniProt P24071 22-287); assay: cell-based or functional assay
[2] = target: IgA (monomeric serum IgA, coated on beads or plates) (human, UniProt P01876-1 1-353); assay: cell-based or functional assay
Chain of IgA (monomeric serum IgA, coated on beads or plates) (P01876 other isoform, or with tags, fused parts or gaps): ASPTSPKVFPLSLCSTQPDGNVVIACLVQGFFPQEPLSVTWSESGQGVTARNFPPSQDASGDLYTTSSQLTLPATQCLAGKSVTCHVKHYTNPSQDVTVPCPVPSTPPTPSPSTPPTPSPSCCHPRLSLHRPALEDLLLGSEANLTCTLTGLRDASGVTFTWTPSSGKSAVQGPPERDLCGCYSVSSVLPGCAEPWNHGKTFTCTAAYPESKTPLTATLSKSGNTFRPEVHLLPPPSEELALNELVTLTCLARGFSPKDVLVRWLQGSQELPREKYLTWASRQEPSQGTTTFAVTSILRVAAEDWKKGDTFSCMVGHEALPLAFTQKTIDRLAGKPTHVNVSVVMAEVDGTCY

Chain of CD89 (Fc receptor for IgA) on polymorphonuclear cells (P24071 22-287): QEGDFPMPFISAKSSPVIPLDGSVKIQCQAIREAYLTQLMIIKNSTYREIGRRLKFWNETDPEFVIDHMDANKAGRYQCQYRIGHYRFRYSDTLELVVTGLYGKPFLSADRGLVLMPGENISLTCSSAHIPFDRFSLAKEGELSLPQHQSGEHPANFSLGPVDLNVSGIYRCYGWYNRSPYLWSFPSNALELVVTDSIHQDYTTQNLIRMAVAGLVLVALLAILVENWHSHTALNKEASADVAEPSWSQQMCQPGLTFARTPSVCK

| percentage blocking (polymorphonuclear cells bound to IgA-coated beads, 2-D migration assay) [1] | percentage blocking (polymorphonuclear cells bound to IgA-coated beads, 2-D migration assay) [2] | Binder |
| --- | --- | --- |
| ≤ 18% | – | HEALPLAFTQK-NH2 [peptide IgA CH3] |
| ≤ 20% | – | CSMVGHEALPLAFTQKC-NH2 (cysteine pairing not given here) [peptide PEO-47 mP2#2,3] |
| – | ≤ 19% | REIGRRLKFWNETDP [Peptide Fc alpha 113] |
